Assay results: paper PMC314469, “Protein Interaction Networks by Proteome Peptide Scanning” (PLoS Biology, 2004)

T1: Yfr024 SH3 (LSB3_YEAST), P43603
T1 chain: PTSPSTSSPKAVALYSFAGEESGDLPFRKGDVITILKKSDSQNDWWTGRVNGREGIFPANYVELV

T2: Boi2 SH3 (BOI2_YEAST), P39969
T2 chain: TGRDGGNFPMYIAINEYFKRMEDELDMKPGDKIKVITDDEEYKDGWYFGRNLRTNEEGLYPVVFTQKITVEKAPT

T3: Boi1 SH3 (BOI1_YEAST), P38041
T3 chain: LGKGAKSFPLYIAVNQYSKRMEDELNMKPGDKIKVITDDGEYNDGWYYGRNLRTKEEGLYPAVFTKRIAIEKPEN

T4: Yhr016c SH3 (YSC84_YEAST), P32793
T4 chain: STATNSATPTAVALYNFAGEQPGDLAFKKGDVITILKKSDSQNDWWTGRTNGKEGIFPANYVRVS

T5: Rvs167 SH3 (RV167_YEAST), P39743
T5 chain: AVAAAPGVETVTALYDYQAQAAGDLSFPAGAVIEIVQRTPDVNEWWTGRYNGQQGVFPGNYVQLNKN


What was measured:
Assay in all cases: SPOT array
[1] = molecular target: T1, Yfr024 SH3 (LSB3_YEAST), P43603
[2] = molecular target: T2, Boi2 SH3 (BOI2_YEAST), P39969
[3] = molecular target: T3, Boi1 SH3 (BOI1_YEAST), P38041
[4] = molecular target: T4, Yhr016c SH3 (YSC84_YEAST), P32793
[5] = molecular target: T5, Rvs167 SH3 (RV167_YEAST), P39743

Binder	normalised SPOT signal, Boehringer light units (BLU); mean over the file's lines of this peptide [1]	normalised SPOT signal, Boehringer light units (BLU); mean over the file's lines of this peptide [2]	normalised SPOT signal, Boehringer light units (BLU); mean over the file's lines of this peptide [3]	normalised SPOT signal, Boehringer light units (BLU); mean over the file's lines of this peptide [4]	normalised SPOT signal, Boehringer light units (BLU); mean over the file's lines of this peptide [5]
FHDPILPRRTSTFL [YHL028W 526-539]	44800	87.1	9870	42100	6840
FPFPTPPDRVALSK [YMR128W 865-878]	834	103	52.4	358	114
FPDPNNPSKVQIRM [YAL051W 375-388]	98.1	21.5	103	122	28
FKMPKKPQRSKEEV [YOR243C 86-99]	7880	244	97.7	2660	166
EYSPLVPSKMSADK [YBR044C 356-369]	370	56.6	103	177	202
EYFPISPEKKEEME [YGR237C 591-604]	0	15.3	120	242	32.5
FDFPLSPVKHENPT [YBR098W 196-209]	53	2.4	70.3	135	28.7
FLSPGKPSKGTSLH [YML005W 163-176]	437	34.6	96.5	243	58.9
FLPPPKPFRHTETK [YBR108W 587-600]	36400	67.3	295	25000	1190
EYHPIKPLRSSSST [YDL180W 234-247]	3150	29.9	56.4	762	48.4
FLLPNLPMRTFKEI [YIL105C 444-457]	15300	66.4	218	8100	8120
FISPHLPMKGRLVL [YGR068C 471-484]	1540	20.4	231	301	68.3
FKAPTNPRKVYSKR [YMR035W 79-92]	267	38.8	80.9	143	33.7
FENPTIPKKSYSEF [YPR045C 291-304]	50.5	55.1	78.2	43.7	47.2
FNGPEPPIKRLKKA [YNL286W 148-161]	625	11.4	255	42.4	70.5
FPYPFKPSRVGVKY [YGL131C 440-453]	2790	81.9	178	260	118
FFHPAIPLKNAAPF [YER066C-A 112-125]	298	9.4	154	288	22.5
FSHPLSPLKSNFID [YGL177W 74-87]	217	44.1	61.5	0	91.8
FLQPVDPVKLDIPF [YLR399C 173-186]	0	24.4	92.6	117	56.8
FFQPEYPVRMEPDL [YLR128W 194-207]	1060	76	57.9	210	0
FGTPVAPTRTLSRK [YOR070C 179-192]	5160	308	3280	269	398
FFDPESPNKGKLIL [YPL269W 491-504]	68	149	63.1	129	61.6
